The values below come from patent publication US20250346679A1 (INVOX PHARMA, published 2025).

By Kd is commonly meant the constant that tells how readily two partners part at equilibrium. A low value points to higher affinity.

Assay [1] concerns the target T1, cynomolgus CD137, cell-surface (cynomolgus, UniProt Q07011 24-255 (human entry)).
T1 chain: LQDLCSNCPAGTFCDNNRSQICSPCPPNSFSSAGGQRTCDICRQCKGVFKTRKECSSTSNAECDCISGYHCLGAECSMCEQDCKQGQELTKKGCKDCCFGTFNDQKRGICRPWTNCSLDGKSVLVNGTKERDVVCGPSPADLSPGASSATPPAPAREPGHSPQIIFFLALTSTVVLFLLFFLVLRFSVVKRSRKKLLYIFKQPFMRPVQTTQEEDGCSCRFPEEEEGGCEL
In words: cell-based or functional assay.

In assay [2] the target is T2, biotinylated hPD-L1-Avi-His (Acro Biosystems, PD1-H82E5) (human, UniProt Q9NZQ7 19-238, biotinylated).
T2 construct: bought; also called Human PD-L1-His; not shown: Avi and His tags of the bought product
The experiment in a line: SPR, mAb^2 captured on Protein A chip, antigen in flow. The procedure:
(§1) Briefly, the anti-human CD137/PD-L1 mAb², diluted in HBS-EP buffer (GE Healthcare, BR100188) at 2 μg/ml, were injected individually on flows cell 2, 3 and 4 of a Protein A chip (GE Healthcare, 29127556) at 30 μl/min to achieve a final response of approximately 110 RU. Two different recombinant human PD-L1 antigens were used i.e. hPD-L1-His-Avi (see Example 1.3 for antigen details) and biotinylated hPD-L1-Avi-His (Acrobiosystems, PD-1-H82E5). Human and cynomolgus PD-L1-His (Acrobiosystems, PD-1-C52H4) antigens, diluted in HBS-EP buffer, were injected on flow cell 1, 2, 3 or 4 as appropriate at a concentration range of 81 nM to 0.037 nM with 3-fold dilutions for 4 min at 75 μl/min and then allowed to dissociate in buffer for 10 min. Regeneration was achieved by injecting 10 mM glycine-HCL pH1.5 (GE Healthcare, Human Antibody Capture Kit, BR00356) for 30 sec at a rate of 30 μl/min. Subtracted data (flow cell 2−flow cell 1, flow cell 3−flow cell 1, or flow cell 4−flow cell 1) were analysed using BIAevaluation 3.2 Software (GE Healthcare) to identify binding using the model 1:1 binding with mass transfer, with refractive index (RI) constant 0.
Background: SPR reads the build-up and loss of mass on a sensor chip optically.

Assay [3] addresses T3, cPD-L1-His (Acro Biosystems, PD1-C52H4) (cynomolgus, UniProt Q9NZQ7 19-238 (human entry)).
T3 construct: bought; also called Cyno PD-L1-His; Cynomolgus PD-L1-His; not shown: His tag of the bought product
The assay is described as above. The procedure:
as §1

For a further assay, the target named is T4, hCD137-mFc-Avi (human; mouse, UniProt Q07011 24-186, biotin on the Avi sequence where the biotinylated form was used).
T4 construct: also called human CD137-mFc-Avi; dimeric human CD137; not shown: mouse IgG2a Fc domain (mIgG2a Fc)
The experiment in a line: SPR, mAb^2 captured by anti-human Fab, antigen in flow. Here is the method: (§2) The binding of the anti-human CD137/PD-L1 mAb² to recombinant dimeric human and cynomolgus CD137 antigens was also measured by SPR using a Biacore T200 processing unit (GE Healthcare).
(§3) Briefly, 20 μg/ml anti-human Fab antibody (GE Healthcare, Human Fab Capture kit 28958325) was coated on flow cells 1, 2, 3 and 4 of a Biacore sensor S chip CM5 (GE Healthcare, BR100530) achieving a final response of approximately 5000 RU. […] The recombinant dimeric antigens, human CD137-mFc-Avi or cynomolgus CD137-mFc-Avi (see Example 1.1 for antigen details) diluted in HBS-EP buffer, were injected on flow cell 1, 2, 3 or 4 as appropriate at a concentration range of 81 nM to 0.037 nM with 3-fold dilutions for 4 minutes at 70 μl/min and then allowed to dissociate in buffer for 10 minutes. Regeneration was achieved by injecting 10 mM glycine pH 2.1 (GE Healthcare, Human Fab Capture kit 28958325) for 60 seconds at a rate of 30 μl/min. Data analysis was performed as described in Example 9.1.

The next assay deals with T5, cCD137-mFc-Avi (cynomolgus; mouse).
T5 construct: also called cynomolgus CD137-mFc-Avi; Cyno CD137-mFc-Avi; not shown: mouse IgG2a Fc domain (mIgG2a Fc)
T5 chain: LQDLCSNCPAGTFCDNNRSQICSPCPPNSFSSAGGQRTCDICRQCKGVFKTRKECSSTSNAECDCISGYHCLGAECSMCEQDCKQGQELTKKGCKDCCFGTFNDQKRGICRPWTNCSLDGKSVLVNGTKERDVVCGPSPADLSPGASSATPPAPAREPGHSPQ
The description is as above. Here is the method: as §2, §3

In assay [4] the target is Human FcRn (Acro Biosystems, FCM-H5286) (human, UniProt P55899 24-297; P61769 21-119). The experiment in a line: SPR, mAb^2 immobilised, FcRn in flow, pH 6.0, steady state affinity; pH 6.0. The text has this: (§4) The neonatal Fc receptor (FcRn) binding is critical for antibody recycling (Martins et al., 2016). […] G1-AA/HeID1.3 was included as an isotype control IgG control lacking mutations in the CH3 domain.
(§5) Briefly, mAb² were individually coated on flow cell 2, 3 and 4 of Series S Sensor Chip CM5 (GE Healthcare, BR100530) to achieve a response of approximately 1000 RU. Flow cell 1 was activated/deactivated but left blank as a reference. Human FcRn (Acro Biosystems, FCM-H5286) or mouse FcRn (R&D systems, 9114-Fc) was dialysed and diluted in MHBS-EP⁺B pH 6.0 or pH 7.4 buffer (10 mM MES, FortéBio, 18-5026; 1×HBS-EP, GE Healthcare, BR100669; 0.1 mg/ml BSA, Sigma, A7906) and injected on flow cell 1, 2, 3 and 4 at 2000-3000 nM with 2-fold dilutions for 1 min at 80 μl/min and then allowed to dissociate in buffer for 3 min. […] Subtracted data (flow cell 2−flow cell 1, flow cell 3−flow cell 1, or flow cell 4−flow cell 1) was analysed using Biacore T200 Evaluation Software 2.0 to identify binding using the model steady state affinity.

Assay [5] has as its target T6, mouse FcRn (R&D systems, 9114-Fc) (mouse, UniProt Q61559 22-297; P01887 21-119, limits assumed).
T6 sequence (looked up) 1: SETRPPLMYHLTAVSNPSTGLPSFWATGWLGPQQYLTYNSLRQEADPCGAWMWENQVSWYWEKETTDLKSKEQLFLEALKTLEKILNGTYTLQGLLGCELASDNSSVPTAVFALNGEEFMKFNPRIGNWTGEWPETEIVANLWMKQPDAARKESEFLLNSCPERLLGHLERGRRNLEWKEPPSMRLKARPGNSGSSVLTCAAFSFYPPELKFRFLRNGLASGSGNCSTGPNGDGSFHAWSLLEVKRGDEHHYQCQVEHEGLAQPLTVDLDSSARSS
T6 sequence (looked up) 2: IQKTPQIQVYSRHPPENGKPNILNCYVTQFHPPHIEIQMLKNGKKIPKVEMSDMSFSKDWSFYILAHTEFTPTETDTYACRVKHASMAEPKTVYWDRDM
The assay is described as above.
Source text: as §4, §5

Assay [6] concerns the target human CD137, cell-surface (human, UniProt Q07011 24-255). In words: cell-based or functional assay.
Assay [7] deals with human PD-L1, cell-surface (human, UniProt Q9NZQ7 19-290). The experiment in a line: cell-based or functional assay.
Assay [8] concerns the target T2, biotinylated hPD-L1-Avi-His (Acro …). The experiment in a line: SPR, antibody captured on Protein A chip, antigen in flow.
Assay [9] deals with T3, cPD-L1-His (Acro Biosystems, PD1-C52H4). The assay is described as above.

T2 sequence (Q9NZQ7 19-238): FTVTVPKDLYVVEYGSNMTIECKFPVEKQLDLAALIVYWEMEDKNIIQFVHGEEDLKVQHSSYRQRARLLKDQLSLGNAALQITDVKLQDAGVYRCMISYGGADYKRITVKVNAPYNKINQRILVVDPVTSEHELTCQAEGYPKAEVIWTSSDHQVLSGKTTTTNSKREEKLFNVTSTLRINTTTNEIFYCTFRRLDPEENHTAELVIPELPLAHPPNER
T3 sequence (Q9NZQ7 other isoform, or with tags, fused parts or gaps): as the sequence (Q9NZQ7 19-238) above, with A33T, A34S, S62N, R68Q, Q82R, F173L, T185A, T192I, H215L counted along it
human PD-L1, cell-surface, sequence (Q9NZQ7 19-290): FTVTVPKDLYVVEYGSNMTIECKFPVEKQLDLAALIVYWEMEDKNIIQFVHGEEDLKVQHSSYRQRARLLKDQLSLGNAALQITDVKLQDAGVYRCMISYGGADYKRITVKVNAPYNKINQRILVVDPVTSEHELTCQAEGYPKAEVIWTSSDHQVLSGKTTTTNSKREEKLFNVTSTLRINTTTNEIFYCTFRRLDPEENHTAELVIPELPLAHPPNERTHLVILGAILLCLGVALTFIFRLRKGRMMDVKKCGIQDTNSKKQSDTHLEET
Human FcRn (Acro Biosystems, FCM-H5286), sequence (P55899 24-297 limits assumed, chain 1 of 2): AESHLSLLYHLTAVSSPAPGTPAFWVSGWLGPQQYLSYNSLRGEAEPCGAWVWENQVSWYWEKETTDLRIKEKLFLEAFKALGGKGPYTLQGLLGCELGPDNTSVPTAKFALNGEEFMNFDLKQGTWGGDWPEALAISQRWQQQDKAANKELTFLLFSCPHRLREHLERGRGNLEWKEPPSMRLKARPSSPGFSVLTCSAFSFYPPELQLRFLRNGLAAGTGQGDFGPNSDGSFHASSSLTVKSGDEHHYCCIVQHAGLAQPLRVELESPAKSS
Human FcRn (Acro Biosystems, FCM-H5286), sequence (P61769 21-119 limits assumed, chain 2 of 2): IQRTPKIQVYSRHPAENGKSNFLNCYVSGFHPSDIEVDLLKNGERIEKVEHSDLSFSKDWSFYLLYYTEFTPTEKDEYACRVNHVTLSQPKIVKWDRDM
T4 sequence (Q07011 24-186): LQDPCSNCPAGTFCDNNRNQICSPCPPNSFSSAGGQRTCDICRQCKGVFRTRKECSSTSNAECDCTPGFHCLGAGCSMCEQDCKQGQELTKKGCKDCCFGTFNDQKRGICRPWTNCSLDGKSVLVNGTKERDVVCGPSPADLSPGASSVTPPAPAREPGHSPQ

B1: FS22-172-003-AA/lam-G02v3 (bispecific antibody, human IgG1, L234A L235A)
heavy: EVQLVQSGAEVKRPGASVKVSCKASGYTFTSYGISWVRQAPGQGLEWMGWISAYSGGTNYAQKLQGRVTMTTDTSTSTAYMELRSLRSDDTAVYYCARDLFPTIFGVSYYYYWGQGTLVTVSSASTKGPSVFPLAPSSKSTSGGTAALGCLVKDYFPEPVTVSWNSGALTSGVHTFPAVLQSSGLYSLSSVVTVPSSSLGTQTYICNVNHKPSNTKVDKKVEPKSCDKTHTCPPCPAPEAAGGPSVFLFPPKPKDTLMISRTPEVTCVVVDVSHEDPEVKFNWYVDGVEVHNAKTKPREEQYNSTYRVVSVLTVLHQDWLNGKEYKCKVSNKALPAPIEKTISKAKGQPREPQVYTLPPSRDELPYIIPPYNQVSLTCLVKGFYPSDIAVEWESNGQPENNYKTTPPVLDSDGSFFLYSKLTVGADRWLEGNVFSCSVMHEALHNHYTQKSLSLSPG
light: QSALTQPASVSGSPGQSITISCTGTSSDVGGYNYVSWYQQFPGKAPKLMIFEVTNRPSGVSDRFSGSKSDNTASLTISGLQAEDEAEYYCSSFKRGSTLVVFGGGTKLTVLGQPAAAPSVTLFPPSSEELQANKATLVCLISDFYPGAVTVAWKADSSPVKAGVETTTPSKQSNNKYAASSYLSLTPEQWKSHRSYSCQVTHEGSTVEKTVAPTECS
notes: see recheck
As for B1, the “EC50 (nM) (crosslinked), mIL-2 release, DO11.10.cCD137 with HEK.cyPD-L1” value in assay [1] came out at 0.08 nM. Besides, in [1], the “Emax (pg/ml) (crosslinked), mIL-2 release, DO11.10.cCD137 with HEK.cyPD-L1” value stood at 12300 pg/mL. In addition, the Kd worked out at 1.54 nM in assay [2]; 1.91 nM in assay [3]; 1.3 nM with hCD137-mFc-Avi; 2.2 nM in the assay with cCD137-mFc-Avi; 1220 nM in assay [4]; 167 nM in [5].

B2: FS22-053-008-AA/E12v2 (bispecific antibody, human IgG1, kappa, L234A L235A)
heavy: EVQLVQSGAEVKRPGASVKVSCKASGYPFTSYGISWVRQAPGQGLEWMGWISAYSGGTNYAQKLQGRVTMTTDTSTSTAYMELRSLRSDDTAVYYCARDLFPTIFGVSYYYYWGQGTLVTVSSASTKGPSVFPLAPSSKSTSGGTAALGCLVKDYFPEPVTVSWNSGALTSGVHTFPAVLQSSGLYSLSSVVTVPSSSLGTQTYICNVNHKPSNTKVDKKVEPKSCDKTHTCPPCPAPEAAGGPSVFLFPPKPKDTLMISRTPEVTCVVVDVSHEDPEVKFNWYVDGVEVHNAKTKPREEQYNSTYRVVSVLTVLHQDWLNGKEYKCKVSNKALPAPIEKTISKAKGQPREPQVYTLPPSRDELNPPYLFSNQVSLTCLVKGFYPSDIAVEWESNGQPENNYKTTPPVLDSDGSFFLYSKLTVDYWRWLEGNVFSCSVMHEALHNHYTQKSLSLSPG
light: DIQMTQSPSTLSASVRDRVIITCRASQSIGNRLAWYQHKPGKAPKLLIYEASTSETGVPSRFSGSGSGTDFTLTISSLQPEDFATYYCQQSYSTPYTFGQGTKLEIKRTVAAPSVFIFPPSDEQLKSGTASVVCLLNNFYPREAKVQWKVDNALQSGNSQESVTEQDSKDSTYSLSSTLTLSKADYEKHKVYACEVTHQGLSSPVTKSFNRGEC
With B2, in assay [6], the “EC50 (nM), hIL-2 release, CD8+ T cells, donor 171115A, HEK.hPD-L1 XL” value amounted to 0.1 nM; the “EC50 (nM), hIL-2 release, CD8+ T cells, donor 171115A, MDA-MB-231 XL” value was 0.01 nM; the “EC50 (nM), hIL-2 release, CD8+ T cells, donor 171115B, HEK.hPD-L1 XL” value worked out at 0.11 nM; the “EC50 (nM), hIL-2 release, CD8+ T cells, donor 171115B, MDA-MB-231 XL” value stood at 0.02 nM. In assay [7], the “EC50 (nM), IFN-γ release, human MLR” value is 0.04 nM and the “Emax (pg/ml), IFN-γ release, human MLR” value was found to be 3130 pg/mL. In [1], the “EC50 (nM) (crosslinked), mIL-2 release, DO11.10.cCD137 with HEK.cyPD-L1” value is 0.08 nM and the “Emax (pg/ml) (crosslinked), mIL-2 release, DO11.10.cCD137 with HEK.cyPD-L1” value was 9010 pg/mL. In assay [2], binding was characterised by a dissociation constant (Kd) of 0.19 nM. Besides, in assay [3], the affinity, expressed as Kd, was 0.25 nM. Further, in the assay with hCD137-mFc-Avi, the Kd was 2.6 nM. Also, binding with cCD137-mFc-Avi was characterised by a dissociation constant (Kd) of 0.6 nM. The equilibrium dissociation constant (Kd) in assay [4] was 998 nM. Moreover, the affinity in assay [5], expressed as Kd, was 177 nM.

B3: G1-AA/E05v2 (antibody, human IgG1, kappa, L234A L235A, V domains shown)
VH: EVQLVQSGAEVKRPGASVKVSCKASGYTFTSYGISWVRQAPGQGLEWMGWISAYSGGTNYAQKLQGRVTMTTDTSTSTAYMELRSLRSDDTAVYYCARDLFPTIFGVSYYYYWGQGTLVTVSS
VL: DIQMTQSPSTLSASVGDRVTITCRASQSISGRLAWYQQKPGKAPNLLIYEASNLESGVPSRFSGSGSGTEFTLTISSLQPEDFATYYCQQSYSTPRVTFGQGTKVEIKR
notes: anti-PD-L1 IgG1 with LALA
In the case of B3, the figures for the dissociation constant Kd in assay [8] and in assay [9] were 0.5 nM and 0.89 nM, respectively.

B4: G1-AA/G12v2 (antibody, human IgG1, kappa, L234A L235A, V domains shown)
VH: B3 VH
VL: DIQMTQSPSTLSASVGDRVTITCRASQSISGRLAWYQQKPGKAPNLLIYEASNLESGVPSRFSGSGSGTEFTLTISSLQPEDFATYYCQQSYSWPRTFGQGTKVEIKR
notes: anti-PD-L1 IgG1 with LALA
Regarding B4, the Kd in assay [8] was 0.44 nM; in assay [9] it was 0.75 nM.
